According to US7977082B2, “Isomaltulose synthases, polynucleotides encoding them and uses therefor” (The University of Queensland of St. Lucia, priority 2001, dated 2011):

Columns and labels:
[1] = tested on: Klebsiella sp. LX3 sucrose isomerase; settings: isomaltulose product; Zhang et al. 2002; cited from earlier work
[2] = molecular target: T1, Pantoea dispersa 68J sucrose isomerase (SI), mature, SEQ ID NO: 10, carboxy-terminal 6×His tag (SEQ ID NO: 52) (Pantoea dispersa, UniProt Q6XNK6); test: Sucrose isomerase kinetics, purified SI from P. dispersa 68J (isomaltulose production), with or without glucose/fructose; type: biochemical; settings: sucrose, isomaltulose production
T1 sequence (Q6XNK6 34-598): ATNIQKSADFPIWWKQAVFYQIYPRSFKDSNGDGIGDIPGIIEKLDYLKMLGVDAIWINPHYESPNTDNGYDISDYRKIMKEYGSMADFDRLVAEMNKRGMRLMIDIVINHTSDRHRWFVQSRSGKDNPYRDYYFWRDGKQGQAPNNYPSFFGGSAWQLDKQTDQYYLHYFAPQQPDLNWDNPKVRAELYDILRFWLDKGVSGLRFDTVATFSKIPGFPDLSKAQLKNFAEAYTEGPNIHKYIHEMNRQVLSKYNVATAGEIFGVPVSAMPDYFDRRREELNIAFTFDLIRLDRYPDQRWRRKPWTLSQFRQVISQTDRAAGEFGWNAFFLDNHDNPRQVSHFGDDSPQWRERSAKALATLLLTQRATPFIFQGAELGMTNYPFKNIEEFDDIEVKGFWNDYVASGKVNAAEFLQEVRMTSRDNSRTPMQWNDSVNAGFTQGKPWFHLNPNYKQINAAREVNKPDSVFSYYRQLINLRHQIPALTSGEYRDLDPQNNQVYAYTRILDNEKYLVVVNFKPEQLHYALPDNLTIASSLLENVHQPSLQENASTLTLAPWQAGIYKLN
Experimental: (§1) The pET24b vector introduces a carboxy-terminal 6×His tag (SEQ ID NO: 52) on expressed proteins, which were purified by adsorption to Ni-NTA agarose (Qiagen) and elution with 25 mM NaH2PO4, 150 mM NaCl, 125 mM imidazole buffer (pH8.0) following the manufacturer's instructions. For storage, the eluted solution was diluted with 50% glycerol. The purity of SI proteins was tested by SDS-PAGE as described below. A batch procedure using Ni-NTA agarose in suspension yielded predominantly (80-95%) SI with a background of several other protein bands. A procedure using Ni-NTA agarose in adsorption columns yielded preparations containing a single protein band. Unless otherwise specified, this is the form of the purified SI enzymes used for biochemical characterisation.
(§2) Enzyme activities were measured by incubating 5 μl of purified enzyme with 95 μL of sucrose solution at a final concentration of 584 mM in 0.1 M citrate/phosphate buffer (pH 6.0) at 30° C. Sugar profiles in the reaction mix were analysed at intervals by CE as described previously. One unit (U) of SI activity was defined as the amount of enzyme that could release 1 μmol of isomaltulose in one minute at the initial stage of the reaction.
(§3) SI activity was measured by incubating the purified enzyme with different sucrose concentrations (3, 6, 15, 58, 146, 292, 584, 877, 1169 and 1461 mM) under standard assay conditions, and also with addition of glucose, fructose or both to a final concentration of 277 mM. Data were analyzed according to the method of Lineweaver and Burk (Voet and Voet, 1995) to calculate Km and Vmax values.

[3] = tested on: Klebsiella sp. sucrose isomerase; settings: isomaltulose product; Park et al. 1996; cited from earlier work
[4] = tested on: Serratia plymuthica ATCC 15928 sucrose isomerase; settings: isomaltulose product; Véronèse & Perlot 1999; cited from earlier work
[5] = molecular target: T2, Klebsiella sp. 14S sucrose isomerase (SI), carboxy-terminal 6×His tag (SEQ ID NO: 52) (Klebsiella planticola, UniProt Q6XKX6); test: Sucrose isomerase kinetics, purified SI from Klebsiella sp. 14S (isomaltulose production), with or without glucose/fructose; type: biochemical; settings: sucrose, isomaltulose production, pH 6.0, 30° C., Lineweaver and Burk
T2 sequence (Q6XKX6 29-598): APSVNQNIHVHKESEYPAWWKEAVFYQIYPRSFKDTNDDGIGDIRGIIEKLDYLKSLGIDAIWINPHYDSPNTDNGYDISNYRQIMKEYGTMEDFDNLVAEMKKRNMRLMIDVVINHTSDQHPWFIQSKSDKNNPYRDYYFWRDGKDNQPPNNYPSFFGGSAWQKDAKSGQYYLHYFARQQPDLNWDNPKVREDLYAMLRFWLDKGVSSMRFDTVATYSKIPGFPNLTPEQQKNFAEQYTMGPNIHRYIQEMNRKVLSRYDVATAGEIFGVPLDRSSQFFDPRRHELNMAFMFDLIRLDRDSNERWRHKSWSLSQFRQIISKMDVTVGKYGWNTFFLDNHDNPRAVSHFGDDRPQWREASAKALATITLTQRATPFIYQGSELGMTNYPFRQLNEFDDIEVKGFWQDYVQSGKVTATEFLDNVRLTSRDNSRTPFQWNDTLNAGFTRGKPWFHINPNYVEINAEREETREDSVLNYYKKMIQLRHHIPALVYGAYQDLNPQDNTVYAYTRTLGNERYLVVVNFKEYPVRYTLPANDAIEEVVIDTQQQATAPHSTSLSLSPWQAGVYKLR
Experimental: as §1, with “Unless otherwise specified, this is the form of the purified SI enzymes used for biochemical characterisation.” left out
Enzyme activities were measured by incubating 5 μl of purified enzyme with 95 μL of sucrose solution at a final concentration of 584 mM in 0.1 M citrate/phosphate buffer (pH 6.0) at 30° C. Sugar profiles in the reaction mix were analysed at intervals by CE as described previously. […]
as §3

[6] = tested on: Pseudomonas mesoacidophila MX-45 sucrose isomerase; settings: trehalulose product; Nagai et al. 1994; cited from earlier work
[7] = Glucose and fructose tested as substrates of the purified enzyme; type: biochemical; settings: 30° C., 30 minutes, pH 3.0 to 7.0
Experimental: (§4) Isomaltulase activity of the purified enzyme was investigated by incubation with 50 mM isomaltulose at 30° C. for 30 minutes at each of pH 3.0, 4.0, 5.0, 6.0 and 7.0. Glucose and fructose were tested as substrates under the same reaction conditions.

[8] = Conversion of sucrose into isomaltulose by E. coli cells expressing cloned SI genes; type: cell-based
Experimental: The three sucrose isomerase genes in the pCR®2.1 vector were cut and cloned into pGEM®-3Zf(+) then into pET 24b vector (Novagen) for expression in E. coli BL21(DE3) strain. Five mL LB medium with 50 μg/mL kanamycin was used for the BL21(DE3) cell culture. Fifteen cultures per construct were set up initially. Cells were grown at 37° C. at 225 rpm shaking. Six to ten cultures per construct, with OD600 1.000±0.005, were selected for further induction. After 0.5 mL was sampled from each culture, IPTG was added to the culture to a final concentration of 1.0 mM. Incubation of the cultures was continued for another 3 hours. The induced cultures only with OD600 1.750±0.005 were further selected for sucrose conversion analysis and protein measurement, allowing analysis of three replicate cultures per construct. From each of the selected IPTG-induced cultures, 1.5 mL was sampled for protein quantification, 0.5 mL for protein SDS-PAGE, 1.0 mL for quantification of conversion efficiency from sucrose into isomaltulose.
The 1.0 mL culture was centrifuged, then resuspended in citrate/phosphate (pH 6.0) buffered 50% sucrose solution and assayed for isomaltulose conversion by CE analysis as described above. Conversion ratio was calculated by sucrose peak area and isomaltulose peak area normalised against standards of known concentration, using the software of Beckman P/ACE 5000 Series C.E. System.
Fifteen cultures per construct were set up in 5 mL LB medium (Sambrook and Russell, 2001) with 50 μg/mL kanamycin in a 30 mL universal tube. Cells were grown at 37° C. at 225 rpm shaking. Six to ten cultures per construct, with OD600=1.00 were selected for further induction. After 0.5 mL was sampled from each culture, IPTG was added to a final concentration of 0.5 mM and incubation of the cultures was continued for another 3 h at 28° C. This allowed selection of three replicate cultures per construct with the same OD600 for sucrose conversion analysis and protein measurement. From each of the selected cultures, 1.5 mL was sampled for protein quantification, 0.5 mL for protein SDS-PAGE, and 1.0 mL for quantification of conversion efficiency from sucrose into isomaltulose. For SI protein purification experiment, the culture volume was scaled up to 25 mL in a 250 mL flask.
The 1.0 mL culture sample was centrifuged at 12,000×g for 1 min, then resuspended in 5 mL of 0.1 M citrate/phosphate (pH 6.0) buffered 50% sucrose solution and incubated for 4 h at 37° C. with 225 rpm shaking. Conversion ratio was calculated from sucrose and isomaltulose peak areas normalised against standards of known concentration, using a Beckman P/ACE 5000 CE as described previously herein.

[9] = Storage stability of purified SI proteins; type: physicochemical
Experimental: The purified fresh enzymes from SDS-PAGE had specific activities for isomaltulose production of: E. rhapontici: 35 U mg^−1 protein, Klebsiella sp.: 95 U mg^−1 protein and P. dispersa: 632 U mg^−1 protein. The purified SI from E. rhapontici lost function during overnight storage at −20° C. in elution buffer diluted with 50% glycerol. In contrast, the purified enzymes from 14S or P. dispersa retained 100% of the fresh enzyme efficiency for isomaltulose production after 6-month storage at −20° C., or 60% after 15-day storage at room temperature in the same buffer. Because of instability, the E. rhapontici SI was not characterised further in purified form. Cheetham et al., (1984) found substantial differences between E. rhapontici strains for SI stability in immobilized cells, and the enzyme from strain NCPPB 1578 was stable in purified form (Cheetham, 1984).
as §1

[10] = Assay of isolated (purified) SI enzyme activity; type: biochemical
Experimental: as §1, §2
The enzymes were incubated with sucrose at different pH ranging from 2.0 to 10.6. The solution of pH 2.0 was buffered in 0.2 M KCl; pH 3.0 to pH 9.0 were in 0.1 M citrate/phosphate buffer; pH 10.0 to pH 10.6 were in 0.2 M glycine buffer. The effect of temperature from 10° C. to 70° C. was measured at pH 6.0. […]

[11] = Isomaltulase activity of the purified enzyme; type: biochemical; settings: 50 mM isomaltulose, 30° C., 30 minutes, pH 3.0 to 7.0
Experimental: as §4

[12] = E. coli, pET 24b, same expression conditions

## OC[C@H]1O[C@@](CO)(O[C@H]2O[C@H](CO)[C@@H](O)[C@H](O)[C@H]2O)[C@@H](O)[C@@H]1O [sucrose, α-D-glucosyl-1,2-D-fructose]
[1]
  Km: 54.6 mM
[2]
  Vmax: 637 μmoles isomaltulose/mg protein/min
[2]; pH 6.0, 30° C., Lineweaver and Burk
  Vmax: 637 U mg^−1
[3]
  Vmax: 110 U mg^−1
[4]
  Km: 65 mM
  Vmax: 120 U mg^−1
[5]
  Vmax: 100 U mg^−1
[6]
  Km: 19.2 mM

B1: P. dispersa SI: sucrose isomerase cloned from bacterial isolate 68J, SEQ ID NO: 8, mature polypeptide SEQ ID NO: 10 (protein)
chain: MFLNGFKTVIALTMASSFYLAASPLTKPSTPIAATNIQKSADFPIWWKQAVFYQIYPRSFKDSNGDGIGDIPGIIEKLDYLKMLGVDAIWINPHYESPNTDNGYDISDYRKIMKEYGSMADFDRLVAEMNKRGMRLMIDIVINHTSDRHRWFVQSRSGKDNPYRDYYFWRDGKQGQAPNNYPSFFGGSAWQLDKQTDQYYLHYFAPQQPDLNWDNPKVRAELYDILRFWLDKGVSGLRFDTVATFSKIPGFPDLSKAQLKNFAEAYTEGPNIHKYIHEMNRQVLSKYNVATAGEIFGVPVSAMPDYFDRRREELNIAFTFDLIRLDRYPDQRWRRKPWTLSQFRQVISQTDRAAGEFGWNAFFLDNHDNPRQVSHFGDDSPQWRERSAKALATLLLTQRATPFIFQGAELGMTNYPFKNIEEFDDIEVKGFWNDYVASGKVNAAEFLQEVRMTSRDNSRTPMQWNDSVNAGFTQGKPWFHLNPNYKQINAARXVNKPDSVFSYYRQLINLRHQIPALTSGEYRDLDPQNNQVYAYTRILDNEKYLVVVNFKPEQLHYALPDNLTIASSLLENVHQPSLQENASTLTLAPWQAGIYKLN
modifications: not fully specified; X: residue not identified in the source
[7]
  product from glucose and fructose as substrates: no product was detected
[8]; [12]
  conversion efficiency from sucrose to isomaltulose, times that of the 14S (Klebsiella sp.) gene product/clone: 18 times
  conversion efficiency from sucrose to isomaltulose, times that of the Erwinia rhapontici gene product/clone: 10 times
[8]; compared with 14S (Klebsiella sp.) and Erwinia rhapontici SIs
  proportions of glucose and fructose generated: smaller proportions of glucose and fructose
[8]; intact cell assay, estimated
  efficiency of the soluble enzyme, times that of the Erwinia and Klebsiella enzymes: 6-38 times
[9]; 6-month storage at −20° C., elution buffer with 50% glycerol
  fresh enzyme efficiency for isomaltulose production retained: 100%
[9]; 15-day storage at room temperature, same buffer
  fresh enzyme efficiency for isomaltulose production retained: 60%
[10]; from pH 4 to 8
  monosaccharides, share of the products: less than 20%
[10]; purified SI
  activity at 10° C., of activity at optimal temperature: 15%
  activity at 60° C.: still active
  isomaltulose production at pH 3 and pH 8: some isomaltulose was still produced
  optimal pH for isomaltulose production: 5
  time until all sucrose was converted: ≤ 45 min
[10]; purified SI, complete conversion, remainder glucose and fructose
  sucrose converted to isomaltulose (of consumed sucrose): 91%
[10]; purified SI, pH 6.0
  optimal temperature for isomaltulose production: 37 °C
[10]; purified fresh His-tagged enzymes
  specific activity for isomaltulose production: 632 U mg^−1 protein
[11]
  hydrolysis of isomaltulose: did not hydrolyse isomaltulose
